Test results published in article PMC8224933.

Biological target: atypical chemokine receptor 3 (human (endogenous in hVSMCs)), P25106
Assay: proximity ligation; Duolink II PLA on hVSMCs fixed with 4% paraformaldehyde; two primary antibodies from differing species (1:500, 37°C, 105 min); control: omission of one primary antibody; PLA signals per cell counted; cells untreated or incubated 72 h with non-targeting, CXCR4, ACKR3 or AVPR1A siRNA
Settings: remark: other sources report otherwise

Chain of atypical chemokine receptor 3 (human (endogenous in hVSMCs)), P25106 (P25106 whole entry): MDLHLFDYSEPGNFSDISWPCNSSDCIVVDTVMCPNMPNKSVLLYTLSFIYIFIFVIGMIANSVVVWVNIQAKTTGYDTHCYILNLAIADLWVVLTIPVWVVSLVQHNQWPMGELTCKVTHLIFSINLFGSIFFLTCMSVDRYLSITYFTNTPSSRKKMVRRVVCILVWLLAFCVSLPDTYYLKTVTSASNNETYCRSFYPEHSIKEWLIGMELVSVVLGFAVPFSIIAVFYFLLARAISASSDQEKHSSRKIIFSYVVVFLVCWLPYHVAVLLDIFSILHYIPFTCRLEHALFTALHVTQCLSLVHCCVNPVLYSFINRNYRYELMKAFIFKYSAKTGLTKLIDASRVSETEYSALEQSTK

B1: chemokine (C-X-C motif) receptor 4, P61073 1-352 (receptor)
chain: MEGISIYTSDNYTEEMGSGDYDSMKEPCFREENANFNKIFLPTIYSIIFLTGIVGNGLVILVMGYQKKLRSMTDKYRLHLSVADLLFVITLPFWAVDAVANWYFGNFLCKAVHVIYTVNLYSSVLILAFISLDRYLAIVHATNSQRPRKLLAEKVVYVGVWIPALLLTIPDFIFANVSEADDRYICDRFYPNDLWVVVFQFQHIMVGLILPGIVILSCYCIIISKLSHSKGHQKRKALKTTVILILAFFACWLPYYIGISIDSFILLEIIKQGCEFENTVHKWISITEALAFFHCCLNPILYAFLGAKFKTSAQHALTSVSRGSSLKILSKGKRGGHSSVSTESESSSFHSS
An increase in PLA signals after AVPR1A siRNA, % of NT siRNA of 59% was found for B1 in this work.
